{"source": "patent US20110135634A1", "about": "“METHODS OF INHIBITING INFECTION BY DIVERSE SUBTYPES OF DRUG-RESISTANT HIV-1” (priority 2007, published 2011)", "key": {"[1]": {"system": "HIV-1", "conditions": "Olson et al., 1999; Trkola et al., 2001; cited from earlier work"}, "[2]": {"assay": "Phase 1b clinical trial: safety, PK, immunogenicity, tropism, susceptibility", "type": "in vivo, human", "conditions": "HIV-infected subjects", "from_the_text": "All patients were screened prior to the study for the presence of virus that utilizes only CCR5 as the entry coreceptor, i.e., CCR5-tropic virus."}, "[3]": {"molecular_target": "CCR5 (Homo sapiens, UniProt P51681)", "sequence (P51681 whole entry)": "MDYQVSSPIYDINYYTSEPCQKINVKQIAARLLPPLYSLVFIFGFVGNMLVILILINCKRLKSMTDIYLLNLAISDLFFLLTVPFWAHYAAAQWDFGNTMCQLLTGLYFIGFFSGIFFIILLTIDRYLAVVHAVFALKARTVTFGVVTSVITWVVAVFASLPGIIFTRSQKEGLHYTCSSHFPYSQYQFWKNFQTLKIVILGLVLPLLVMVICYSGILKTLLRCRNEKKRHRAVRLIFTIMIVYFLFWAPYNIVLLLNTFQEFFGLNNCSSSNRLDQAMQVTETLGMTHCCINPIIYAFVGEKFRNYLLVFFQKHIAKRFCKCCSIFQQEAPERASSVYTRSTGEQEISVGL", "conditions": "cited from earlier work"}, "[4]": {"system": "CCR5-tropic envelope-complemented luciferase-expressing HIV-1 reporter viruses", "assay": "PhenoSense HIV Entry Assay on U87-CD4/CCR5 cells", "type": "cell-based", "design": "key to Mean FC / FC: fold change in drug susceptibility vs DUAL (92HT594) reference envelope", "from_the_text": "Of these, 10 isolates were derived from viruses with high-level resistance to protease (PR) and/or reverse transcriptase (RT) inhibitors. Four additional isolates incorporated the major enfuvirtide-conferring mutations in an HIV-1JR-CSF envelope background. […] EC50 values for test isolates were divided by the EC50 for a well-characterized reference virus (HIV-192HT594) to yield fold-change (FC) values.\nA PhenoSense™ HIV Entry assay (Whitcomb et al, Antimicrobial Agents and Chemotherapy, 51:566, 2007) has been developed by modifying the PhenoSense HIV assay and is illustrated schematically in FIGS. 21 and 22. The assay uses nucleic acid amplification (RT-PCR) to derive HIV envelope sequences (gp160) from HIV(+) patient plasma samples or other sources. Amplified envelope sequences were incorporated into a proprietary expression vector (pCXAS) using conventional cloning methods. Envelope expression vectors were prepared as large pools of sequences (>200) in order to assure that the diversity of sequences accurately represents the diversity of viral quasispecies in the specimen at the time of sample collection. Recombinant HIV-1 stocks expressing virus envelope proteins were prepared by co-transfecting HEK293 cells with a HIV-1 genomic viral vector and an appropriate envelope expression vector. The HIV-1 genomic vector is replication defective and contains a luciferase expression cassette within a deleted region of the HIV envelope gene. Following transfection, recombinant virus particles were harvested and used to inoculate two U87 cell lines expressing CD4 and the CCR5 or CXCR4 co-receptor (U87-CD4/CCR5 and U87-CD4/CXCR4 cells, respectively). […] Drug susceptibility was measured by comparing the amount of luciferase activity produced in the presence of entry inhibitors to the amount of luciferase activity produced in absence of entry inhibitors. Entry inhibitor activity was evaluated at ten serial drug concentrations. Data were analyzed by plotting percent inhibition of luciferase activity vs. log10 drug concentration.\nThe 31 viruses used in this study were CCR5-tropic and were selected from Monogram Biosciences' Specimen Library. The panel included four of each subtypes A, B, C, D, F, and G viruses and three subtype J virus (Table 17). Of the 31 viruses examined, 17 were wildtype (WT), 10 were resistant to protease (PR) and/or reverse transcriptase (RT) inhibitors and 4 were enfuvirtide-resistant site-directed mutants (SDMs). The enfuvirtide-resistant viruses included envelopes with amino acid substitutions at positions 36-38 (GIV motif) and 43 within heptad repeat 1 (HR-1) and were introduced by site-directed mutagenesis into gp41 transmembrane (TM) sequence of the JRCSF envelope, as shown in Table 16.\nDUAL (92HT594) is an envelope expression vector derived from a drug-naive reference virus that can efficiently infect cells expressing both the CD4 receptor and the CCR5 or CXCR4 co-receptor molecules on the cell surface. The DUAL envelope control was used to determine the fold changes in drug susceptibility of samples evaluated on U87-CD4/CCR5 cells. The DUAL control was also tested in each assay batch to evaluate and monitor assay performance over time.\nJRCSF is an envelope expression vector derived from a drug-naive reference virus that can efficiently infect cells expressing both the CD4 receptor and the CCR5 co-receptor molecules on the cell surface.\nSusceptibility data were analyzed by plotting percent inhibition of luciferase activity vs. log10 drug concentration."}, "[5]": {"system": "CCR5 chemokine signaling (L1.2-CCR5 cells)", "assay": "RANTES-induced calcium mobilization in L1.2-CCR5 cells versus HIV-1JR-FL replication in PBMC (FIG. 4)", "type": "cell-based, human", "conditions": "PBMC cultures, similar results for MIP-1α and MIP-1β", "from_the_text": "Similar results were obtained for MIP-1α and MIP-1β."}, "[6]": {"system": "primary R5 HIV-1 isolates", "assay": "Whole virus replication (neutralization) assay", "type": "cell-based", "conditions": "a variety of primary R5 strains (FIG. 1)", "procedure": "Humanized PRO140 is potently antiviral. […] The data reflect the median values from 8 or more independent assays. The genetic subtypes of the viruses are indicated in parentheses.\nStimulated PBMCs are seeded into wells of 96-well flat bottom plates at a density of 1.4×10^5 cells/well. Virus is diluted to 2,000 TCID50/ml and mixed with serial 0.5 log10 dilutions of compound for 1 h at 37° C. prior to addition to the cell plates. The final amount of virus added per well is 100 TCID50. The final DMSO concentration in the assay is always 0.5% whenever small molecule inhibitors are being tested. Plates are incubated at 37° C. for 5 days, at which time an aliquot of supernatant is removed for p24 antigen ELISA.\nThe percent inhibition is derived as follows [1−(p24 levels in the presence of drug/p24 levels in the absence of drug)]×100."}}}
{"molecule": "PRO 140: humanized IgG4,κ anti-CCR5 mAb being developed for HIV-1 therapy (antibody, chains of the INN, looked up, V domains shown) VH: EVQLVESGGGLVKPGGSLRLSCAASGYTFSNYWIGWVRQAPGKGLEWIGDIYPGGNYIRNNEKFKDKTTLSADTSKNTAYLQMNSLKTEDTAVYYCGSSFGSNYVFAWFTYWGQGTLVTVSS VL: DIVMTQSPLSLPVTPGEPASISCRSSQRLLSSYGHTYLHWYLQKPGQSPQLLIYEVSNRFSGVPDRFSGSGSGTDFTLKISRVEAEDVGVYYCSQSTHVPLTFGQGTKVEIK", "values": [{"measurement": "IC90", "setting": "[1]", "value": "about 4 μg/ml"}, {"measurement": "change in plasma RANTES (CCL5) chemokine levels", "setting": "[2]", "value": "No change"}, {"measurement": "dose-limiting toxicity", "setting": "[2]; 0.5-5.0 mg/kg", "value": "No dose-limiting toxicity"}, {"measurement": "treatment related SAEs", "setting": "[2]; 0.5-5.0 mg/kg", "value": "No treatment related SAEs"}, {"measurement": "tolerability", "setting": "[2]; all study groups", "value": "well-tolerated"}, {"measurement": "Block Natural Activity of CCR5", "setting": "[3]; Table 2 summary", "value": "No"}, {"measurement": "Development of Resistance In Vitro", "setting": "[3]; Table 2 summary", "value": "None at 40 weeks"}, {"measurement": "Viral Cross-Resistance", "setting": "[3]; Table 2 summary", "value": "Limited"}, {"measurement": "tolerability", "setting": "[3]", "value": "No Toxicity"}, {"measurement": "median IC50", "setting": "[4]; 27 viruses representing different genetic subtypes", "value": 0.44, "unit": "µg/mL"}, {"measurement": "range of FC values", "setting": "[4]; 31 test viruses, relative to HIV-1 92HT594", "value": "0.28-4.1"}, {"measurement": "mean EC50", "setting": "[4]; all 31 test viruses", "value": "0.50 ± 0.27", "unit": "µg/mL"}, {"measurement": "Mean FC", "setting": "[4]; all 31 test viruses, relative to reference virus HIV-1 92HT594", "value": "1.5±0.8"}, {"measurement": "FC", "setting": "[4]; envelopes from PR/RT-resistant viruses", "value": "1.4±1.0"}, {"measurement": "mean IC50", "setting": "[4]; four enfuvirtide-resistant SDMs", "value": 0.82, "unit": "µg/mL"}, {"measurement": "IC50, Average", "setting": "[4]; panel of 31 viruses", "value": 0.5096, "unit": "µg/mL"}, {"measurement": "IC50, Max", "setting": "[4]; panel of 31 viruses", "value": 1.4329, "unit": "µg/mL"}, {"measurement": "IC50, Median", "setting": "[4]; panel of 31 viruses", "value": 0.4418, "unit": "µg/mL"}, {"measurement": "IC50, Min", "setting": "[4]; panel of 31 viruses", "value": 0.0955, "unit": "µg/mL"}, {"measurement": "Mean FC", "setting": "[4]; subtype A", "value": "1.0±0.4"}, {"measurement": "Mean FC", "setting": "[4]; subtype B", "value": "1.5±0.2"}, {"measurement": "Mean FC", "setting": "[4]; subtype C", "value": "0.94±0.5"}, {"measurement": "Mean FC", "setting": "[4]; subtype D", "value": "1.4±0.6"}, {"measurement": "Mean FC", "setting": "[4]; subtype F", "value": "1.5±0.7"}, {"measurement": "Mean FC", "setting": "[4]; subtype G", "value": "1.8±1.6"}, {"measurement": "Mean FC", "setting": "[4]; subtype J", "value": "1.2±0.4"}, {"measurement": "effect on RANTES-induced calcium mobilization and on HIV-1JR-FL replication", "setting": "[5]", "value": "blocks HIV-1 but not chemokine signaling"}, {"measurement": "IC90", "setting": "[6]", "value": "3 to 4", "unit": "µg/mL"}]}
